Measurements from patent publication US20040043949A1.

What was measured:
[1] = target: Mod.Caspase 3/172(NS5A/B) (human) (UniProt P42574); assay: cell-based or functional assay
[2] = target: modified BID with an HCV NS3 cleavage site (human) (UniProt P55957); assay: cell-based or functional assay

Substance	cell death, FACS analysis of living EGFP positive CHOP cells, (+) NS3 Protease [1] [% cell death]	cell death, FACS analysis of living EGFP positive CHOP cells, (+) NS3 Protease [2] [% cell death]	AnnexinV positive H9C2 cells, FACS, 24 hours (% more cells than control) [2]	AnnexinV positive H9C2 cells, FACS, 24 hours, no VAD-fmk [2] [%]
HCV NS3/NS4A protease (from UniProt P27958 1027-1657; P27958 1658-1711) (enzyme)	> 30	> 30	–	–
single-chain HCV protease (NS4A-NS3) (from UniProt P27958 1678-1689; P27958 1029-1207) (enzyme)	–	–	50	60
